Measurements published in the DeepSol protein solubility set.

Experiment: soluble on expression in E. coli; label from the status in PepcDB or PDB records

Row | Sequence | soluble on expression in E. coli
1 | MGSDKIHHHHHHMKVKYIAAILLSTQLVYTACDDMGFLQIKPDSLELTDDRIKTVDDLENLLLGAYNGIRSSGFWGGRTLRGFDVIADDGVADVATFEWVQMSAHTMNLVNAVGRDTWTATYNAINMANQVAFSDLGESILASDPQKEAQFKAEASFIRALGYFHLVRAFGLPYAEETKDIAEMGVPLRLRGVMDRATAFEVVQRSTVSEVYSQIISDLEYAIGNLPGENKVESGRATVDGAKALLAKVYFYKHDFGNAAKYAEQVINTQKYDLDEDLTAKFGRAEKKTVTQEIVAMIPSASLIEDSWGGLRDYRTNGLALPTSRPSNELIAAYDQQNDNRFKTFFKNIDGSWYTLKFDYEYMDGIIIGYNELLLLYAESLAESNGNMNQALNALQKIEKRAYGKANTTTTDRASFIKAVQKERRLEIALQGERLFELKRIKQSVRGEAWDSHKVMFQIPDVEQNGNPDVNMN | not soluble
2 | MLKVIDVDFVSDHTLELTFNDGYQGYADLSVYFKKAPFSEIKDFKRFSLTRDGSLNWDGNELTAATLRDITKGSQKSVELSFNVQEMEAVIKQASWESMMEGRPDILQAAIRSYVEQFGHGQVIAKAGIKSRTSAYRSLKPETTPNFGTLVQLGHAVIELAKDRTVANKEPRI | not soluble
3 | MGETKADFRDMSRIPKVREGFYATNNQFQKAGPKGFVQVKVLENDNLYVRVDLPGVPDDAVRYRVDAVRQKVVFFSGETLNNGKEGVRQYSGTAGLGCDCCEITGVDAKMKDGVLRMILTRVKVVSKAQDNNNNKCTLTVPPFTGQSGIRLEDHPCLVSGRKGALIGVTKAGGGAHFAVDMPGVSPDDVEVYADEKEIRFKAEIKDVYEHDESGRTYLGSVQSPFPALISNNTIAWDAEFGVLRIAVIPPDDMTTINNKRNPIE | soluble
4 | SLRIREIEPIVLTSKEKGSATWASIMIVTRVITENGEVGYGEAVPTLRVISVYNAIKQVSKAYIGKEVEEVEKNYHEWYKQDFYLARSFESATAVSAIDIASWDIIGKELGAPIHKLLGGKTRDRVPVYANGWYQDCVTPEEFAEKAKDVVKMGYKALKFDPFGPYYDWIDERGLREAEERVKAVREAVGDNVDILIEHHGRFNANSAIMIAKRLEKYNPGFMEEPVHHEDVIGLRKYKASTHLRVALGERLISEKETAFYVEEGLVNILQPDLTNIGGVTVGRSVIKIAEANDVEVAFHNAFGSIQNAVEIQLSAVTQNLYLLENFYDWFPQWKRDLVYNETPVEGGHVKVPYKPGLGVSINEKIIEQLRAEPIPLDVIEEPVWVVKGTWKNYGV | not soluble
5 | MSLKSQNTLWKIRKIWAKFQRYTISYKQEIIGTFNPQAQMILMNHQSALDIIALEELYPKNLCWIAKKELGEIPIFKVAMKKPKLLCIDRKNPRDLVRVLKEAKERISEDRVLAIFPEGTRSKNEKMLKFQSGAKILSEKLNLKVQPILIVDSAKILDTKSFSASSGVLKIICMDLVDTNDEKWLENTRKKMQELLDQERAKLCEGHHHHHH | not soluble
6 | SAQTTDTGWMTNPQHPPVQTRFVLTGQQDPQAKTLTGYLDVKLTGDWKTYWRSPGEGGVAPSIDWQNSQNLSKVDWQWPYPQKFELLGIETLGYKGDTLFPMTLHIDNMSKPVTIDAVLTLSSCTTICVLTDYQIQLTFLPSELQIDEQVMFSYAQAVSNVPQPSPFIDVTQASWDANQSKLQIKLTNTQGWNQPQVLVDGVDEATRDYSFKLEGIHQEGNTVTASYLVDTWLGDVELSDQSLFVTIKDANLLAEETTQAIAEAIVDPLPSTSVVS | soluble
7 | MELMKDDRYSPDWKNIAITKKQSVHWVCEWCGVQCLKPGEGKGLLKEERYRLRMAVHHCDYDPGNNSPSNLMAVCSPCHLYYHRRQQGNITPGQLKITINLEHHHHHH | soluble
8 | MSLAKYKRVVLKLSGEALAGEQGYGIDPEVIQSIASQIKEIVELDVEVAVVVGGGNIWRGMAGSAKGMDRATADYMGMLATVMNSLALQDSLENLDVQSRVQTSIEMRQVAEPYIRRRAIRHLEKKRVVIFAAGTGNPYFSTDTTAALRAAEIEAEVILMAKNKVDGVYNAEPSVDVNAKKYTSISYLDVLKEGLAVMDSTASSLCMDNNIPLIVFSIMEEGNIKKAVLGEEIGTVVRGSNEGHHHHHH | soluble
9 | STTLTHRARRTEISKNSEKKMESEEDSNWEKSPDNEDSGDSKDIRLTLMEEVLLLGLKDKEGYTSFWNDCISSGLRGGILIELAMRGRIYLEPPTMRKKRLLDRKVLLKSDSPTGDVLLDETLKHIKATEPTETVQTWIELLTGETWNPFKLQYQLRNVRERIAKNLVEKGILTTEKQNFLLFDMTTHPVTNTTEKQRLVKKLQDSVLERWVNDPQRMDKRTLALLVLAHSSDVLENVFSSLTDDKYDVAMNRAKDLVELDPEVEGTKPSATEMIWAVLAAFNKS | soluble
10 | MKLKVTVNGAGKAGEGEIPAPLAGTVSKILVKEGDTVKAGQTVLVLEAMKMETEINAPTDGKVEKVLVKERDAVQGGQGLIKIG | soluble
11 | SAETEALSKLREDFRMQNKSVFILGASGETGRVLLKEILEQGLFSKVTLIGRRKLTFDEEAYKNVNQEVVDFEKLDDYASAFQGHDVGFCCLGTTRGKAGAEGFVRVDRDYVLKSAELAKAGGCKHFNLLSSKGADKSSNFLYLQVKGEVEAKVEELKFDRYSVFRPGVLLCDRQESRPGEWLVRKFFGSLPDSWARGHSVPVVTVVRAMLNNVVRPRDKQMELLENKAIHDLGKAHGSLKP | soluble
12 | MSDLETVAKFLAESVIASTAKTSERNLRQLETQDGFGLTLLHVIASTNLPLSTRLAGALFFKNFIKRKWVDENGNHLLPANNVELIKKEIVPLMISLPNNLQVQIGEAISSIADSDFPDRWPTLLSDLASRLSNDDMVTNKGVLTVAHSIFKRWRPLFRSDELFLEIKLVLDVFTAPFLNLLKTVDEQITANENNKASLNILFDVLLVLIKLYYDFNCQDIPEFFEDNIQVGMGIFHKYLSYSNPLLEDPDETEHASVLIKVKSSIQELVQLYTTRYEDVFGPMINEFIQITWNLLTSISNQPKYDILVSKSLSFLTAVTRIPKYFEIFNNESAMNNITEQIILPNVTLREEDVELFEDDPIEYIRRDLEGSDTDTRRRACTDFLKELKEKNEVLVTNIFLAHMKGFVDQYMSDPSKNWKFKDLYIYLFTALAINGNITNAGVSSTNNLLNVVDFFTKEIAPDLTSNNIPHIILRVDAIKYIYTFRNQLTKAQLIELMPILATFLQTDEYVVYTYAAITIEKILTIRESNTSPAFIFHKEDISNSTEILLKNLIALILKHGSSPEKLAENEFLMRSIFRVLQTSEDSIQPLFPQLLAQFIEIVTIMAKNPSNPRFTHYTFESIGAILNYTQRQNLPLLVDSMMPTFLTVFSEDIQEFIPYVFQIIAFVVEQSATIPESIKPLAQPLLAPNVWELKGNIPAVTRLLKSFIKTDSSIFPDLVPVLGIFQRLIASKAYEVHGFDLLEHIMLLIDMNRLRPYIKQIAVLLLQRLQNSKTERYVKKLTVFFGLISNKLGSDFLIHFIDEVQDGLFQQIWGNFIITTLPTIGNLLDRKIALIGVLNMVINGQFFQSKYPTLISSTMNSIIETASSQSIANLKNDYVDLDNLEEISTFGSHFSKLVSISEKPFDPLPEIDVNNGVRLYVAEALNKYNAISGNTFLNTILPQLTQENQVKLNQLLVGNRSHHHHHH | soluble
13 | MSALLEVTNLHKDFVTRSGFLRKQIQHAVKPVSFTLEAGQTIGFIGQNGSGKSTLARMLAGMVAPTGGEIRVNGELLEHKDYSTRCKLIRMIFQDPNTSLNPRLQIGTILEGPLKRNTSMTPEARMRRVKDTLQRVGLLPEHAYFYPQMLATGQKQRVCLARALILQPSIIIADEALNGLDMAMRSQILNLFLELQEEMGVSFVYVSQHIGVIKHITDKIIVMHEGDVVESGETHEVLADPQHPITQRMIESHFTKAPTFKY | not soluble
14 | MSLGNSFRQGANAYFDYVNTQGGIYGRALELLTYDDKYEPKLTESNVRHLIDKEGVFALMGTIGTPTAMAAIPVALEEQIPFLMPLSGARFLREPFNRLIFNLRPSYFEEIEAISSYLTEERGFKRIAIFYQNDSFGIEGLEGLTQSLDKRGLKIVAEGIYPRNTLSVSDAVYAIHPKSPEAIVMVGTYEASALFIQRYKELNPASPPLFVNISFVAATALAEALQGNMRQVLVSNVTPSPWDISNPLVREYHRLYVESMGHPPCFLSFEGFLSAKIIVEALHKTGPILSHKRFIKAMENLSPDFLSDLKLRFSATNHQAFEQVFITGYENGRFVTLKSYEGHHHHHH | not soluble
15 | MSTKEIICTLKGQFFLSPREEKFLRLLEEMGIPEEDIQEGIRECLKSVSPKKRKNFPLFKCFSKILEVNKVRALERGKREHLDWKRVFERKVSVVKHLLDFNYTEPKTEEEAEKTLQEIERKIFKKLWENLDKERKREIYNKYKEVKEDEELFKELIKHELRKIFQIPVLSLYVD | not soluble
16 | MADFDNLFDAAIARADETIRGYMGTSATITSGEQSGAVIRGVFDDPENISYAGQGVRVEGSSPSLFVRTDEVRQLRRGDTLTIGEENFWVDRVSPDDGGSCHLWLGRGVPPAVNRRR | soluble
17 | MKKIILTIGCPGSGKSTWAREFIAKNPGFYNINRDDYRQSIMAHEERDEYKYTKKKEGIVTGMQFDTAKSILYGGDSVKGVIISDTNLNPERRLAWETFAKEYGWKVEHKVFDVPWTELVKRNSKRGTKAVPIDVLRSMYKSMREYLGLPVYNGTPGKPKAVIFDVDGTLAKMNGRGPYDLEKCDTDVINPMVVELSKMYALMGYQIVVVSGRESGTKEDPTKYYRMTRKWVEDIAGVPLVMQCQREQGDTRKDDVVKEEIFWKHIAPHFDVKLAIDDRTQVVEMWRRIGVECWQVASGDF | soluble
18 | MGSDKIHHHHHHMNERRLLLTGGWILSMDPAVGDLRQGDILIEGDRIAAVAPRIEAPEAQRIDAAGMIVLPGFVDTHRHTWQSCVRHRYADIDPQIYFAEMLGATGAAFRPDDVYIGTLLGAVSALDSGITTMLDWSHVQNSPEHADAAVLGLRDAGIRGIFAHGWPLVEGASWMFDSQRGHPEDIRRLRERYFSSDDQLLTLAMAARGPEMACREVWLRDLRLARELGIRSSIHMGAYARNGTARGIAQMHEAGVLGDDLTFVHCCCSGEDEIAMMADAGVSASLGVHCELNAQGIGDLPLDRMLAVGIRPSLSGDTETKCSGDMFTQMRHAFAYYRSWMGGNHSRVANAPATLSMRDVLEFATVAGARANGLDHKVGSLTPGKQADIVMIRGDDLNLAPVSDAVGAVVLAAHPGNVDTVFVAGRTVKRHGRMTGVDVDMLRHRAAASQHYVLGLR | not soluble
19 | GHMGLEPYEISTLFEQRQAMLQSIKEGVVAVDDRGEVTLINDAAQELLNYRKSQDDEKLSTLSHSWSQVVDVSEVLRDGTPRRDEEITIKDRLLLINTVPVRSNGVIIGAISTFRDKT | soluble
20 | MGSDKIHHHHHHMQKHNIKRDCCKLLYLLICNSLFYRRSIMGVKVVKDLVYSYIEIDESVQKLIDTASFQRLKRIKQLSSSYIFPSTNHTRYEHSIGVMHLACNFFEVLEKDFRKYGLTEDRISYLRLHIKLAGLLHDVGHPPFSHLGEKFLDKNEIIACIKNEYSHLVDVDKTFYNNGRLIGKEHELLSCYCILRKFYKILKEEIDKNIDVAFICRCIIGNTYPDSENWDKNICVRIISSDSIDVDKLDYLTRDNHMTGEIAPKMDIKRLLACLTITENKELKYVAKAIPAVQTVVDSRDILYLWVYHHHISIYTDYIIGRILKRCMTLYDEHRGQALEEMNREEYFSPKAITDYLITDDDIYSHLRKIYVLSLEGKVDDFNTIIIKQIFERDFLKPLWKTIYEYKDFEKNLVDKKIIKSYDELEDILKNEKNIEDITNTLLKKLNLKEGEVFIITKYNKFYNSNKEAPISLLLNGEERKLSDLLPQKEFGKFHTMAFFVFVPKKYKKEAKEIVIEELQKISQT | not soluble
21 | MTKIMIIGANGGIAKKLTQRLLAETDDELVLFLRRAERLAQYREQPRVTLIDGNVLDTDELATAMAPVDIVYSNVGGTDLAAQTKSILAAMARTQRQRLIFISALGAHHEVPGKFGAWNEQAIADFLPGFREAARLLSASELVYTEIRPAWLTDVAEIDYELTTGAEPFKGTEVSRASVADLVFKLMAHPENYQRVSLGVDEPGTAGDRPSWLLEHHHHHH | not soluble
